# Patent US6596687B1, “Cell adhesion inhibitors” (Biogen, Inc., priority 1995, dated 2003)
# Numbered stars: 1 amine (or outer) side, 2 acyl side, 3 side chain; on linkers, the order of the positions; unused ones are H or OH. Square brackets hold non-standard residues; d marks the D form. Peptide text beside a SMILES is read from it. * marks the point of attachment. 2‑MPUPA = 4-(N′-(2-methylphenyl)urea)phenylacetyl, Cc1ccccc1NC(=O)Nc1ccc(CC(=O)*)cc1; X2 = O=C(Cc1ccc(N[*:1])cc1)[*:2]; NH(2-F-phenyl) = Fc1ccccc1N*; 2‑MPUB = not defined here; PhAc = O=C(Cc1ccccc1)*; CO = O=C([*:1])[*:2]; NHPh = c1ccc(N*)cc1; Ahx = NCCCCCC(=O)O; Bn = c1ccc(C*)cc1; NHiBu = CC(C)CN*; NHiPr = CC(C)N*
# B1: Compound 167 (peptide)
# peptide: LDVM
# HELM: PEPTIDE1{[CC(C)(C)OC(=O)[*:2]].L.D.V.M.[CO[*:1]]}$$$$V2.0
# SMILES: COC(=O)[C@H](CCSC)NC(=O)[C@@H](NC(=O)[C@H](CC(=O)O)NC(=O)[C@H](CC(C)C)NC(=O)OC(C)(C)C)C(C)C
# B2: Compound 168 (peptide)
# peptide: LDVM
# HELM: PEPTIDE1{[O=C(c1ccc2ccccc2n1)[*:2]].L.D.V.M.[CO[*:1]]}$$$$V2.0
# SMILES: COC(=O)[C@H](CCSC)NC(=O)[C@@H](NC(=O)[C@H](CC(=O)O)NC(=O)[C@H](CC(C)C)NC(=O)c1ccc2ccccc2n1)C(C)C
# B3: Compound 186 (peptide)
# peptide: LDVM
# HELM: PEPTIDE1{[O=C(c1ccc2ccccc2n1)[*:2]].L.D.V.M}$$$$V2.0
# SMILES: CSCC[C@H](NC(=O)[C@@H](NC(=O)[C@H](CC(=O)O)NC(=O)[C@H](CC(C)C)NC(=O)c1ccc2ccccc2n1)C(C)C)C(=O)O
# B4: Compound 315 (peptide)
# peptide: MDVP
# HELM: PEPTIDE1{[Cc1ccccc1NC(=O)Nc1ccc(CC(=O)[*:2])cc1].M.D.V.P}$$$$V2.0
# SMILES: CSCC[C@H](NC(=O)Cc1ccc(NC(=O)Nc2ccccc2C)cc1)C(=O)N[C@@H](CC(=O)O)C(=O)N[C@H](C(=O)N1CCC[C@H]1C(=O)O)C(C)C
# B5: Compound 153 (peptide)
# peptide: FLDV
# HELM: PEPTIDE1{[O=C(c1ccccc1)[*:2]].F.L.D.V}$$$$V2.0
# SMILES: CC(C)C[C@H](NC(=O)[C@H](Cc1ccccc1)NC(=O)c1ccccc1)C(=O)N[C@@H](CC(=O)O)C(=O)N[C@H](C(=O)O)C(C)C
# B6: Compound 338 (peptide)
# peptide: LDVPST
# HELM: PEPTIDE1{[Cc1ccccc1NC(=O)Nc1ccc(CC(=O)[*:2])cc1].L.D.V.P.S.T}$$$$V2.0
# SMILES: Cc1ccccc1NC(=O)Nc1ccc(CC(=O)N[C@@H](CC(C)C)C(=O)N[C@@H](CC(=O)O)C(=O)N[C@H](C(=O)N2CCC[C@H]2C(=O)N[C@@H](CO)C(=O)N[C@H](C(=O)O)[C@@H](C)O)C(C)C)cc1
# B7: Compound 339 (peptide)
# peptide: VLPD
# HELM: PEPTIDE1{[Cc1ccccc1NC(=O)Nc1ccc(CC(=O)[*:2])cc1].V.L.P.D}$$$$V2.0
# SMILES: Cc1ccccc1NC(=O)Nc1ccc(CC(=O)N[C@H](C(=O)N[C@@H](CC(C)C)C(=O)N2CCC[C@H]2C(=O)N[C@@H](CC(=O)O)C(=O)O)C(C)C)cc1
# B8: Compound 341 (peptide)
# peptide: LPVD
# HELM: PEPTIDE1{[Cc1ccccc1NC(=O)Nc1ccc(CC(=O)[*:2])cc1].L.P.V.D}$$$$V2.0
# SMILES: Cc1ccccc1NC(=O)Nc1ccc(CC(=O)N[C@@H](CC(C)C)C(=O)N2CCC[C@H]2C(=O)N[C@H](C(=O)N[C@@H](CC(=O)O)C(=O)O)C(C)C)cc1
# Legend:
# VLA4 = molecular target: T1, VLA4 (Homo sapiens, UniProt P05556+P13612); experiment: Inhibition of VLA4-dependent adhesion of Ramos cells to BSA-CS1; format: cell-based; conditions: Ramos cells, BSA-CS1 coated wells, 2 mM MnCl2, 30 minutes at room temperature; read-out: IC50
# T1 construct: endogenous in cells; host or cells: Ramos cells
# T1 sequence (P13612 34-1032): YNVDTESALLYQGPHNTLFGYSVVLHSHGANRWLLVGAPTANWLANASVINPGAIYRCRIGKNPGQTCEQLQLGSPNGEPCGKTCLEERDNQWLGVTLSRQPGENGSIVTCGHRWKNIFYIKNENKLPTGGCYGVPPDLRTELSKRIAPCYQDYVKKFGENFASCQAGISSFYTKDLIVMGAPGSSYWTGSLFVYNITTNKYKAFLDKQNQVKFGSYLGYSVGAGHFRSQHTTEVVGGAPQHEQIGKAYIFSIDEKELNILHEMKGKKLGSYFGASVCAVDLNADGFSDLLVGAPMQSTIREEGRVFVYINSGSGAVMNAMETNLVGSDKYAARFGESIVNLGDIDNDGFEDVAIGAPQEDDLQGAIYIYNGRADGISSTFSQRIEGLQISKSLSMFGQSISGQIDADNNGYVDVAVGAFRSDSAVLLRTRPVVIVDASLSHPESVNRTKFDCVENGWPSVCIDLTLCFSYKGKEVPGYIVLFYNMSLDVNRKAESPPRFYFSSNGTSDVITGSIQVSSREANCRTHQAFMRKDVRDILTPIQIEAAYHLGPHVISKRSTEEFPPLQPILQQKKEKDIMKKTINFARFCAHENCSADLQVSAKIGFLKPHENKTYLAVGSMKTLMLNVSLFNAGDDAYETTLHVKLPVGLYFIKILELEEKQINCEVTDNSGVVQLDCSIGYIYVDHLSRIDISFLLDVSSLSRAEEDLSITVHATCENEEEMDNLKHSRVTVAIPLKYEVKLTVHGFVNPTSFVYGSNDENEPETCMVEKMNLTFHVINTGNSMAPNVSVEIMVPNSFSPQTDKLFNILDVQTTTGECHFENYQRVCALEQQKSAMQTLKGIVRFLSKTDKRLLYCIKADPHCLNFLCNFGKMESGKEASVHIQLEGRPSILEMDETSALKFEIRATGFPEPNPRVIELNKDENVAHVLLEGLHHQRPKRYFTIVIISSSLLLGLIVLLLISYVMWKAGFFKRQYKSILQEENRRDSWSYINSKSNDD
# T1 sequence (P05556 21-798): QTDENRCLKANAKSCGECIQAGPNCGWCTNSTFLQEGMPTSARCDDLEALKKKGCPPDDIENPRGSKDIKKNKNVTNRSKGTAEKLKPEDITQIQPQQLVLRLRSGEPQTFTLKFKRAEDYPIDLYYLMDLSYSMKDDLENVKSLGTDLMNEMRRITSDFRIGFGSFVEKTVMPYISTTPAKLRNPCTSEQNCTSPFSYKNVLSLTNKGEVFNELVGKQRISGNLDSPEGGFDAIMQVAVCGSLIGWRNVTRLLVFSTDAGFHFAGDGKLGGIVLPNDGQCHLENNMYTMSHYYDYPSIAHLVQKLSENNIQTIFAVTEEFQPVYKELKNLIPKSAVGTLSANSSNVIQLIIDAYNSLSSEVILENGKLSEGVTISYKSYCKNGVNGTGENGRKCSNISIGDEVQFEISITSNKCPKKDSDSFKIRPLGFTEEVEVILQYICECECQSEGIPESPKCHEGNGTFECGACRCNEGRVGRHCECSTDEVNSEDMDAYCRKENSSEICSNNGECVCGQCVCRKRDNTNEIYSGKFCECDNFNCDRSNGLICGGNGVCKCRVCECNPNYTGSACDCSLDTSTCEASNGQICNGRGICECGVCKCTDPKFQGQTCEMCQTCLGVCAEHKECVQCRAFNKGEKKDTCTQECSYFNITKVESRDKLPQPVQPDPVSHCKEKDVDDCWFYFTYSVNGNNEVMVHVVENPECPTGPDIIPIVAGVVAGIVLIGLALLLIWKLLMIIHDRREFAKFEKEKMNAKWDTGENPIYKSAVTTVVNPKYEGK
# How it was run: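 BCECF-AM-labelled Ramos cells in Tris buffer pH 7.4 with 2 mM MnCl2 were added with compound to wells coated with BSA-conjugated Cys-Tyr-CS1 peptide (1 μg/mL). Cells and compound were incubated for 30 min at room temperature, in triplicate. Inhibition was quantified from bound fluorescence against no-compound controls, with uncoated wells used for nonspecific binding.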
# [1] = molecular target: VLA-4 (alpha4beta1 integrin) (UniProt P13612); experiment: Ramos/BSA-CS1 adhesion inhibition
# Chain of VLA-4 (alpha4beta1 integrin) (UniProt P13612) (P13612 34-1032 limits assumed, chain 1 of 2): as the sequence (P13612 34-1032) above
# Chain of VLA-4 (alpha4beta1 integrin) (UniProt P13612) (P05556 21-798 limits assumed, chain 2 of 2, further chain): as the sequence (P05556 21-798) above
# [2] = molecular target: T2, VLA-4 (alpha4beta1 integrin) (UniProt P13612 34-1032; P05556 21-798, limits assumed); experiment: Ramos/BSA-CS1 adhesion inhibition
# T2 construct: whole, on cells; also called very late antigen-4; CD49d/CD29
# T2 sequence (P13612 34-1032 limits assumed, chain 1 of 2): as the sequence (P13612 34-1032) above
# T2 sequence (P05556 21-798 limits assumed, chain 2 of 2): as the sequence (P05556 21-798) above
# Method: Following labelling, the cells were washed twice in assay buffer (24 mM TRIS, 137 mM NaCl, 2.7 mM KCl, pH 7.4, containing 0.1 BSA and 2mM glucose) to remove any cations originating from the culture medium. The cells were then resuspended in assay buffer to 4 ×10^6 cells/mL and 2 mM MnCl_2 was added to upregulate VLA4 on the surface of the cells.
# Immediately prior to running the assay, we removed the BSA blocking solution from the 96-well plates and washed the wells with 100 μL of assay buffer. We then added to each well 25 μL of test cell adhesion inhibitory compound at 2×the final concentration and 25 μL of the labelled Ramos cells. […] Each concentration of compound was tested in triplicate. The compound and cells are allowed to incubate for 30 minutes at room temperature.
# Percent binding is calculated by the formula: […]
Molecule,IC50 (VLA4),IC50 [2],also measured
CC(C)C[C@H](NC(=O)Cc1ccc(NC(=O)Nc2ccccc2)cc1)C(=O)N[C@@H](CC(=O)O)C(=O)N[C@H](C(=O)N1CCC[C@H]1C(=O)NC(C)C)C(C)C [Compound 327] ({NHPh-CO}-[X2]LDVP-NHiPr),< 0.05 µM,,
CC(C)CNC(=O)[C@@H]1CCCN1C(=O)[C@@H](NC(=O)[C@H](CC(=O)O)NC(=O)[C@H](CC(C)C)NC(=O)Cc1ccc(NC(=O)Nc2ccccc2)cc1)C(C)C [Compound 328] ({NHPh-CO}-[X2]LDVP-NHiBu),< 0.05 µM,,
CC(C)CNC(=O)[C@H](CC(=O)O)NC(=O)[C@@H]1CCCN1C(=O)CCc1ccc(O)cc1 [Compound 331],> 10 µM,,
CC(C)C[C@H](NC(=O)Cc1ccc(NC(=O)Nc2ccccc2F)cc1)C(=O)N[C@@H](CC(=O)O)C(=O)N[C@H](C(=O)N1CCC[C@H]1C(=O)O)C(C)C [Compound 347] ({NH(2-F-phenyl)-CO}-[X2]LDVP-OH),< 0.05 µM,,
CNC(=O)[C@@H](NC(=O)[C@H](CC(=O)O)NC(=O)[C@H](CC(C)C)N(C)C(=O)CCCc1ccccc1)C(C)C [Compound 348],> 10 µM,,
CNC(=O)[C@@H](NC(=O)[C@H](CC(=O)O)NC(=O)[C@H](CO)NC(=O)Cc1ccccc1)C(C)C [Compound 349] (HELM PEPTIDE1{[O=C(Cc1ccccc1)[*:2]].S.D.V.[CN[*:1]]}$$$$V2.0),> 10 µM,,
CNC(=O)[C@@H](NC(=O)[C@H](CC(=O)O)NC(=O)[C@H](CCCCN)NC(=O)Cc1ccccc1)C(C)C [Compound 350] (HELM PEPTIDE1{[O=C(Cc1ccccc1)[*:2]].K.D.V.[CN[*:1]]}$$$$V2.0),> 10 µM,,
CNC(=O)[C@H](COCc1ccccc1)NC(=O)[C@H](CC(=O)O)NC(=O)[C@H](CC(C)C)NC(=O)Cc1ccccc1 [Compound 352] (PhAc-Leu-Asp-Ser(Bn)-NHMe),> 10 µM,,
CNC(=O)[C@H](COCc1ccccc1)NC(=O)[C@H](CC(=O)O)NC(=O)[C@H](CC(C)C)NC(=O)c1ccc2ccccc2n1 [Compound 353],> 10 µM,,
CCCCNC(=O)[C@@H](NC(=O)[C@H](CC(=O)O)NC(=O)[C@H](CC(C)C)NC(=O)OC(C)(C)C)[C@@H](C)O [Compound 354] (HELM PEPTIDE1{[CC(C)(C)OC(=O)[*:2]].L.D.T.[CCCCN[*:1]]}$$$$V2.0),> 10 µM,,
H-[dP][dV][dD][dL]-{2‑MPUB} (reading uncertain) [Compound 343],,,IC50 [1]: > 10 µM
{3‑methoxy‑4‑(N'-phenylurea)phenylacetyl}-MDVP-OH [Compound 2],,< 0.05 µM,
{4‑(N'-2-hydroxyphenylurea)phenylacetyl}-MDVP-OH [Compound 146],,< 0.05 µM,
B1,,> 10 µM,
B2,,0.05 to 10 µM,
B3,,> 10 µM,
{2‑MPUPA}-K(Ahx)DVP-OH [Compound 202],,0.05 to 10 µM,
B4,,< 0.05 µM,
Ac-FLDV-OH [Compound 152],,> 10 µM,
B5,,> 10 µM,
{2‑MPUPA}-LDVPS-OH [Compound 337],,< 0.05 µM,
B6,,< 0.05 µM,
B7,,> 10 µM,
B8,,> 10 µM,
